Reference: patent WO2015129919A1 (dated 2015)

T1: SLC6A6 extracellular region partial protein (E. coli recombinant, amino acid residues 143 to 216, C-terminal … (human, UniProt P31641 143-216))
T1 construct: also called partial protein of the extracellular region of SLC6A6; SLC6A6 partial protein for screening
T1 sequence: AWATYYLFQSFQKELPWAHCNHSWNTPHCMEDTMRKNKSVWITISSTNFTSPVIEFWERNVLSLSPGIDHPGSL

T2: SLC6A6 (solute carrier family 6 (neurotransmitter transporter, taurine), member 6), human, native on the cell … (human, UniProt P31641 1-620)
T2 construct: also called native SLC6A6; taurine transporter
T2 sequence: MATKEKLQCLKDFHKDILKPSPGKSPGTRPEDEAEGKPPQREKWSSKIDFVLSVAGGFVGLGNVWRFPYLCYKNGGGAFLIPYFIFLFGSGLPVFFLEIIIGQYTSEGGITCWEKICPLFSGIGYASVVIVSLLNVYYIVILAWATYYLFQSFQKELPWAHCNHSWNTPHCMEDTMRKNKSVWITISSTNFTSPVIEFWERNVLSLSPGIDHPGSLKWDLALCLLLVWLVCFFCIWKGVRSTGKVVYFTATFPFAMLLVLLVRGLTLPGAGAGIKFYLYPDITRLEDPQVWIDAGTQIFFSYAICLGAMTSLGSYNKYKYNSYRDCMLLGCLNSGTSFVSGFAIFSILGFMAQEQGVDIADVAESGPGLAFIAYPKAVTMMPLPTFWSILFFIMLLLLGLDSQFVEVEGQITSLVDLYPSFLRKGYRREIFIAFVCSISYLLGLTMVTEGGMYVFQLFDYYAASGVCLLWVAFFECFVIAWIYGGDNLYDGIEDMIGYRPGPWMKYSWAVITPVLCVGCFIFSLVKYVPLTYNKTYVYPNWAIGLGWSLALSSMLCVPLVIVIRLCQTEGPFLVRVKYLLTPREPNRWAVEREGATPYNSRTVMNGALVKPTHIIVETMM


How the values were obtained:
[1] = target: T1, SLC6A6 extracellular region partial …; assay: competition inhibition test; 402 at 10 ug/mL pre-incubated with recombinant SLC6A6 extracellular region partial protein at 15 ug/mL, read out by immunofluorescence on HCT116 cells
[2] = target: T2, SLC6A6 (solute carrier family 6 …); assay: flow cytometry on HCT116 cells
[3] = target: T2, SLC6A6 (solute carrier family 6 …); assay: flow cytometry on HCT116 cells, antibody 10 ug/mL
[4] = target: T2, SLC6A6 (solute carrier family 6 …); assay: immunohistochemistry on breast cancer and uterine cancer tissue sections
[5] = target: T2, SLC6A6 (solute carrier family 6 …); assay: flow cytometry on 293T cells (express SLC6A6), antibody 10 ug/mL

Binder	binding result [2]	other results
monoclonal antibody produced by mouse-mouse hybridoma 402 (antibody, V domains shown, Mouse IgG from the hybridoma) VH: VKLQQSGPELVKPGASVKVSCTASGYAFTQYNLYWVKLRHGKCPKWIGSIDPYIGGTTYNQQFKDKVTLTVDKSSSTAYLHLNSLTSEDSAIYYCARWWDGYFDVWGAGTTVTVSS VL: QIVLTQSPAIMSASLGERVTLTCTASSSVISRYLHWYQVKPGSSPKLWIYSTSNLASGVPTRFSGSGSGTSYSLTISNMEAEDAATYYCHQYHRSPLTFGAGTKLELT	binds	binding result [1]: binds
monoclonal antibody produced by mouse-mouse hybridoma 430 (antibody, V domains shown, Mouse IgG from the hybridoma; also called antibody clone 430; 430 antibody) VH: IQLQQSGPEVVKPGTSVRVSCTASGYAFTQYNLYWVKLRHGKCPKWIGSIDPYIGGANYNQQFKDKVTLTVDKSSSTAYLHLNSLTSEDSAIYYCARWWDGYFDVWGAGTTVTVSS VL: QIVLTQSPAIMSASLGERVTMTCTASSSVSFRYLHWYQVKPGSSPKLWIYSTSNLASGVPSRISGSGSGTSYFLTISNMEAEDAATYYCHQYHRSPLTFGAGTKLELT	binds	–
antibody clone 402 human-mouse chimeric antibody (antibody, human IgG1, kappa, V domains shown, Human IgG1 heavy chain constant region and human kappa constant region, expressed in Expi293F cells; also called c402 mAb) VH: QVKLQQSGPELVKPGASVKVSCTASGYAFTQYNLYWVKLRHGKCPKWIGSIDPYIGGTTYNQQFKDKVTLTVDKSSSTAYLHLNSLTSEDSAIYYCARWWDGYFDVWGAGTTVTVSS VL: QIVLTQSPAIMSASLGERVTLTCTASSSVISRYLHWYQVKPGSSPKLWIYSTSNLASGVPTRFSGSGSGTSYSLTISNMEAEDAATYYCHQYHRSPLTFGAGTKLELTR	–	binding result [3]: binds
monoclonal antibody produced by mouse-mouse hybridoma 205 (antibody, V domains shown, Mouse IgG from the hybridoma) VH: VKLQQSGPELVKPGASVKMSCKASGYTFTSYVMHWVKQKPGQGLEWIGYINPYNDGTKYNEKFKGKATLTSDKSSSTAYMELSSLTSEDSAVYYCARRKAWFAYWGQGTLVTVSA VL: DIQMTQSPASQSASLGESVTITCLASQTIGTWLAWYQQKPGKSPQLLIYAATSLADGVPSRFSGSGSGTKFSFKISSLQAEDFVSYYCQQLYSTPLTFGGGTKLEIK	–	binding result [4]: binds
monoclonal antibody produced by mouse-mouse hybridoma 419 (antibody, V domains shown, Mouse IgG from the hybridoma) VH: IQLQQSGPELVKPGASVKVSCKAFGYAFTRHNMYWVKQRHGKCLEWIGYIDPFNGGTSYNQKFKGKATLTVDKSSSTAYMHLNSLTSEDSAVYYCARVYGNYAWFAYWGQGTLVTVSA VL: DIVMTQSHKFMSTSVGDRVSITCKASQDVSTAVAWYQQIPGQSPKLLIYSSSYRYTGVPDRFTGSGSGTDFTFTISSVQAEDLAVYYCQQHYNTPWTFGGGTKLEIK	–	binding result [5]: binds

Continued, in another order:

binding result [2]	Binder	other results
binds	monoclonal antibody produced by mouse-mouse hybridoma 303 (antibody, V domains shown, Mouse IgG from the hybridoma) VH: VQLQQPGAEFVKPGTSVKLSCKASGYNFTRYWINWVKLRPGQGLEWIGNIYPATNGINYNEKFKSKATLTVDTFSSTAYMQLSSLASEDSGLYYCARCKTMLSRCAWFPYWGQGTLVTVSA VL: DIQMTQTTSSLSASLGDRVTINCRASQDISNYLNWYQQKPDGTVKLLIYDTSRLHSRVPSRFSGSGSGTDYSLTISNLEQEDIATYFCQQGNMLPWTFGGGTKLEIK	–
binds	monoclonal antibody produced by mouse-mouse hybridoma 422 (antibody, V domains shown, Mouse IgG from the hybridoma; also called antibody clone 422) VH: VQLQQSGPEVVKPGPSLRMSCKASGYFFTGNSMNWVKKTHGRSLEWIGLIDLSNGETRFNQKFKGKATLTVDKSSGTAYMELLNLTSEDSAVYYCASRSAMIMPCFSHWGQGTLVTVSA VL: DIVMTQSHNFMSTSIGDRVNITCKASQDVATAVAWFQQKPGQSPKLLIYWTSTRHTGVPDRFTGSGYGTDFTLTISHVQSEDLADYFCQQYDTYPYTFGGGTKLEIK	–
